Experimental data taken from paper PMC4447949, “Structures of the Ets Protein DNA-binding Domains of Transcription Factors Etv1, Etv4, Etv5, and Fev” (The Journal of Biological Chemistry, 2015).

What was measured:
Settings in all cases: protein: recombinant; tags: N-terminal His6 removed by TEV (leaves SM); blunt
Etv1 C416S = Etv1 C416S (human, UniProt P50549 326-429, C416S); test: EMSA; 2 nM probe; EMSA: 50 mM Tris-HCl pH 7.5, 50 mM NaCl, 2 mM MgCl2, 0.01% Tween 20, 5% glycerol, 1 h at room temperature; proteins reduced with 10 mM TCEP unless stated; 10% native PAGE
Etv1 K404A = Etv1 K404A (human, UniProt P50549 326-429, K404A); test: as above
Etv1 R394A = Etv1 R394A (human, UniProt P50549 326-429, R394A); test: EMSA; 2 nM probe; 10 mM TCEP; EMSA: 50 mM Tris-HCl pH 7.5, 50 mM NaCl, 2 mM MgCl2, 0.01% Tween 20, 5% glycerol, 1 h at room temperature; proteins reduced with 10 mM TCEP unless stated; 10% native PAGE
Etv1 D387A [1] = molecular target: T1, Etv1 D387A (human, UniProt P50549 326-429, D387A); test: as above
Etv1 Y329S-P427S [2] = molecular target: T2, Etv1 Y329S-P427S (human, UniProt P50549 326-429, Y329S;P427S); test: as above
[3] = molecular target: T3, Etv1 Ets domain WT (reduced monomer) (human, UniProt P50549 326-429); test: as above
Etv1 Y396F = Etv1 Y396F (human, UniProt P50549 326-429, Y396F); test: as above
Etv1 R391A [4] = molecular target: T4, Etv1 R391A (human, UniProt P50549 326-429, R391A); test: as above
Etv1 S334E = Etv1 S334E (human, UniProt P50549 326-429, S334E); test: EMSA; 0.1 nM probe; 10 mM TCEP; EMSA: 50 mM Tris-HCl pH 7.5, 50 mM NaCl, 2 mM MgCl2, 0.01% Tween 20, 5% glycerol, 1 h at room temperature; proteins reduced with 10 mM TCEP unless stated; 10% native PAGE
Etv1 Y395F = Etv1 Y395F (human, UniProt P50549 326-429, Y395F); test: as above
Etv1 D387A [5] = molecular target: T1, Etv1 D387A; test: as above
Etv1 Y329S-P427S [6] = molecular target: T2, Etv1 Y329S-P427S; test: as above
[7] = molecular target: T3, Etv1 Ets domain WT (reduced monomer); test: as above
Etv1 R391A [8] = molecular target: T4, Etv1 R391A; test: as above
Etv1 Y397F = Etv1 Y397F (human, UniProt P50549 326-429, Y397F); test: EMSA; 2 nM probe; undetectable or below regression threshold; EMSA: 50 mM Tris-HCl pH 7.5, 50 mM NaCl, 2 mM MgCl2, 0.01% Tween 20, 5% glycerol, 1 h at room temperature; proteins reduced with 10 mM TCEP unless stated; 10% native PAGE
Chain of Etv1 Y397F (P50549 326-429 Y397F): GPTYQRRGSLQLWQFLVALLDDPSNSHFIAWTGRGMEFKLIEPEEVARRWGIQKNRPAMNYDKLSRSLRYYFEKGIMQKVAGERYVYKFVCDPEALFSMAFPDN

T4 sequence (P50549 326-429 R391A): as the sequence (P50549 326-429 Y397F) above, with R66A, F72Y counted along it
T1 sequence (P50549 326-429 D387A): as the sequence (P50549 326-429 Y397F) above, with D62A, F72Y counted along it
T2 sequence (P50549 326-429 Y329S/P427S): as the sequence (P50549 326-429 Y397F) above, with Y4S, F72Y, P102S counted along it
T3 sequence (P50549 326-429): as the sequence (P50549 326-429 Y397F) above, with F72Y counted along it
Chain of Etv1 K404A (P50549 326-429 K404A): as the sequence (P50549 326-429 Y397F) above, with F72Y, K79A counted along it
Chain of Etv1 R394A (P50549 326-429 R394A): as the sequence (P50549 326-429 Y397F) above, with R69A, F72Y counted along it
Chain of Etv1 Y395F (P50549 326-429 Y395F): as the sequence (P50549 326-429 Y397F) above, with Y70F, F72Y counted along it
Chain of Etv1 C416S (P50549 326-429 C416S): as the sequence (P50549 326-429 Y397F) above, with F72Y, C91S counted along it
Chain of Etv1 S334E (P50549 326-429 S334E): as the sequence (P50549 326-429 Y397F) above, with S9E, F72Y counted along it
Chain of Etv1 Y396F (P50549 326-429 Y396F): as the sequence (P50549 326-429 Y397F) above, with Y71F, F72Y counted along it

B1: Etv1ALF/Etv1ALR EMSA probe (dsDNA)
DNA 1: ATCTCACCGGAAGTGTAGCA
DNA 2: TGCTACACTTCCGGTGAGAT
Kd (Etv1 C416S): 0.46 ± 0.06 nM | binding result (Etv1 K404A): no binding | Kd (Etv1 R394A): 276 ± 62.7 nM | Kd (Etv1 D387A [1]): 0.17 ± 0.02 nM | Kd (Etv1 Y329S-P427S [2]): 0.25 ± 0.026 nM | Kd [3]: 0.27 ± 0.028 nM | Kd (Etv1 Y396F): 2640 ± 935 nM | Kd (Etv1 R391A [4]): 11.8 ± 1.48 nM | Kd (Etv1 S334E): 0.94 ± 0.51 nM | Kd (Etv1 Y395F): 1.35 ± 1.05 nM | Kd (Etv1 D387A [5]): 0.19 ± 0.03 nM | Kd (Etv1 Y329S-P427S [6]): 0.31 ± 0.06 nM | Kd [7]: 0.59 ± 0.15 nM | Kd (Etv1 R391A [8]): 8.6 ± 1.68 nM | binding result (Etv1 Y397F): no binding
